Assay results from the nanobody polyreactivity screen of Harvey et al. (2022).

Experiment: yeast display, Sf9 membrane polyspecificity reagent, FACS + sequencing; frameworks hold sequencing errors
Method in brief: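 Sorting gates, low and high (top ~1%), were placed on anti-HA fluorescence to track expression and on streptavidin fluorescence to track reagent binding. A clone's polyreactivity label is taken from the gate it came out of. The reagent was 10% biotinylated, detergent-solubilized Sf9 membrane, applied for 1 hour at 4 °C to galactose-induced yeast display cells.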

QVQLVESWGGLVQAGGSLRLSCAASGFTFRAYAMGWYRQAPGKERELVAAISTGGGSTYYADSVKGRFTISRDNAKNTVYLQMKSLKPEDTAVYYCNALPQRRYYYWGQGTQVTVSS
polyreactivity (PSR sort gate): high polyreactivity

QVQLVESGGGLVQAGGSLRLSCAASGGTLWGYGMGWYRQAPGKEREFVAAITWSGGNTNYADSVKGRFTISRDNAMNTVYLLMNSLKPEDTAVYYCNARVYYKRKYDYWGQGTQVTVSS
polyreactivity (PSR sort gate): high polyreactivity

QVQLVESGGGLVQAGGSLRLSCAASGSIFYPYAMGWYRQAPGKERELVAAISYNGGSTYYADSVKGRFTISRDNAKNTVYLQMNSLKPEETAVYYCAARPYHGKLDYWGQGTQVTVSS
polyreactivity (PSR sort gate): low polyreactivity

QVQLVESGGGLVQAGGSLRLSCAASGFIFRYYARGWYRQAPGKERELVAAISSTGGSTSYADSVKGRFTISRDNAKNTVYLQLNSQKPEDTAVYDCAADYWIRRRTYGQLYRPYYYWGQGTQVTVSS
polyreactivity (PSR sort gate): high polyreactivity

QVQLVESGGGLVQAGGSLRLSCAASGSIFHPYAMGWYRQAPGKERELVAAISSSTGRTYYADSVKGRFTISRDNAKNTVYLQMNSLKPEDTAVYYCAARKKYSEFDYWGQGTQVTVSS
polyreactivity (PSR sort gate): high polyreactivity

QVQLQERGDGLGQAVGSLRLSCAASGYISGYYYLGWYRQAPGKEGVVVAGIDAFGSRTNFADCVKGRFTISRDNAKNPVDLQMNSLKPEETAVYYCAARPDGDRLFSYWGQGPQVTVSS
polyreactivity (PSR sort gate): low polyreactivity

QVQLVESGGGLVQAGGSLRLSCAASGRTFYFNAMGWYRPAPGKERELVAAITSGVRTKYADSVKGRFTISRDNAKNTVYLQMNSLKPEDTAVYYCAAGGYPSRYAPWMEYWGQGTQVTVSS
polyreactivity (PSR sort gate): high polyreactivity

QVQLVESGGGLVQAGGSLRLSCAASGSTFVTYARGWYRQAPGKERELVAAISRRAGRTYYADSVKGRFTISRDNAQNTVSLQMNSLKPEDTAVYYCAKQAYEAFYTGDDYDYWGQGTKVTVSS
polyreactivity (PSR sort gate): high polyreactivity

QVQLVESGGGLVHAGGSLRLSCASSGIIFDYYAMAWYRQAPGKERELVASITGTTGSTYYADSVKGRFTISRDNAKINVYLQMNSLKPEDTAVYYCNVDTPYGGLVTMDYWGQGTQVTVSS
polyreactivity (PSR sort gate): low polyreactivity

QVQLVESGGGLVQAGGSLRLSCAASGSTFSGYAMGGYRQAPGKERELVAAISSSGGSTSYADSVKGRFTISRDNAKNTVYLQMNSLKPEDTAVYYCAARAKGYAHIRAYDYWGQGTQVTVSS
polyreactivity (PSR sort gate): low polyreactivity

QVQLEESGGGLVQAGGSLRLSCAASGSIFFEYAMGWYRQAAGKERELVASINRGGGSTYYADSVKGRYTISRDNAKKNVYLQMNSLKPEDTAVYYCAAQWKYRQSYLDYYWGQGTQVTVSS
polyreactivity (PSR sort gate): low polyreactivity

QVHLVESGGGLVQAGGSLRLSCAASGRTFNRTAMGSYRQAPGKERELVAAMSWRGDSTSYADSVKGRFTISRDNAKNTVYLQMNSLKPADTAVYYCATAHDYAFYRYWYVPSEYYYWGQGTQVTVSW
polyreactivity (PSR sort gate): low polyreactivity

QVQLVESGGGLVQAGGSLRLSCAASGFTFQYYAMGWYRQAPGKERELVAAISWSGASTYYADSVKGRFTISRDNAKNTVYLQMNSLKPEDTAVYYSAAKYYRDRDWGQGTQVTVSS
polyreactivity (PSR sort gate): high polyreactivity

QVQLVEAGGGLVKAGGSLRLSCAASGYIFRFYALGWYRQAPGKERELVAAISRSGSRTYYADSVKGRFTISRDNAKNTVYLQMNSLKPEDTAVYYCAAVTRGLRFDYWGQGTQVTVSS
polyreactivity (PSR sort gate): high polyreactivity

QVQLVESGGGLVQAGGSLRLSCAASGSIFRGNAMGWYRQAPGKERELVAAITRSGGRTYYADSVKGRFTISRDNANNTVYLQMNCLKPEDTAVYFCAADYPYGSPTHFDYWGQGTQVTVSS
polyreactivity (PSR sort gate): high polyreactivity

QVQLVDTGGGLVQAGGSLRLSCAASGFTFRWYAMGWYRQAPGKERELVAAISWRGGSTYYADSVKGRFTISRDNAKTTVYLQMNSLKPEDTAVYYCAALRYWISLSSYEYWGQGTQVTVSS
polyreactivity (PSR sort gate): high polyreactivity

QVQLVETGGGLVQAGGSLRLSCAASGSIFLGNAMGWYRQAPGKERELVAAISGGDSTNYADSVKGRFTISRDNAKNTVYLQMKSLKPEDTAVYYCNALTHWAPASYEYDYWGQCTQVTVSS
polyreactivity (PSR sort gate): low polyreactivity
